# Experimental data taken from article PMC12846278, “Efficient Expression of Lactone Hydrolase Cr2zen for Scalable Zearalenone Degradation in Pichia pastoris” (Toxins, 2025).
# Test system: T1, C[C@H]1CCCC(=O)CCC/C=C/c2cc(O)cc(O)c2C(=O)O1
# T1 construct: full-length ORF (792 bp, 264 aa, 29 kDa) in pPICZalphaA with alpha-factor secretion signal, secreted from Pichia pastoris X33; ~35 kDa band for Ser-Cr2
# Assay: HPLC, ZEN degradation; Lineweaver-Burk
# Type: biochemical, Clonostachys rosea
# Settings: 20 mM Tris-HCl pH 8.0, 30 °C
substance,measurement,value
Cr2zen (Clonostachys rosea),Km,75.9 ± 2.1 µM
